Literature values, collected in PMC5337525.

Biological target: calmodulin (UniProt P0DP23)

Kd: 7 µM
Substance: β-arrestin 1 (from UniProt P17870)
